Reference: USRE39057

Columns and labels:
[1] = molecular target: CXCR4 (Fusin), human (human) (UniProt P61073); test: Scatchard analysis of 125I-12G5 binding; RD cells
[2] = molecular target: CXCR4 (Fusin), human (human) (UniProt P61073); test: Scatchard analysis of 125I-12G5 surface binding at 4 C; RD or BC7 cells (endogenous CXCR4)
[3] = molecular target: HA-tagged CXCR4 (HA-tagged Fusin) on CHO-K1 cells (influenza; human) (UniProt P61073); test: Scatchard analysis of 125I-12G5 binding; CHO cells expressing HA-tagged Fusin
[4] = molecular target: CXCR4 (Fusin), human (human) (UniProt P61073); test: FACS, 10 µg/ml 12G5, Nalm6 cells chronically infected by HIV-2/vcp; loss of surface Fusin or blocking of the epitope not told apart
[5] = molecular target: CXCR4 (Fusin), human (human) (UniProt P61073); test: flow cytometry, MOLT-4 cells
[6] = molecular target: CXCR4 (Fusin), human (human) (UniProt P61073); test: flow cytometry, MT-2 cells
[7] = molecular target: CXCR4 (Fusin), human (human) (UniProt P61073); test: flow cytometry, Sup T1 cells
[8] = molecular target: CXCR4 (Fusin), human (human) (UniProt P61073); test: flow cytometry, PBMC cultured 5 days, average of 10 batches
[9] = molecular target: CXCR4 (Fusin), human (human) (UniProt P61073); test: FACS, 10 µg/ml 12G5, Sup-T1 cells infected by HIV-2/vcp
[10] = molecular target: CXCR4 (Fusin), human (human) (UniProt P61073); test: FACS, 10 µg/ml 12G5, Daudi cells chronically infected by HIV-2/vcp; loss of surface Fusin or blocking of the epitope not told apart
[11] = molecular target: CXCR4 (Fusin), human (human) (UniProt P61073); test: Scatchard analysis of 125I-12G5 binding; BC7 cells
[12] = molecular target: CXCR4 (Fusin), human (human) (UniProt P61073); test: flow cytometry, Daudi/CD4 cells
[13] = molecular target: CXCR4 (Fusin), human (human) (UniProt P61073); test: flow cytometry, macrophages cultured 5 days, average of 3 batches
[14] = molecular target: CXCR4 (Fusin), human (human) (UniProt P61073); test: flow cytometry, C8166 cells
[15] = molecular target: CXCR4 (Fusin), human (human) (UniProt P61073); test: flow cytometry, HeLa/CD4 cells
[16] = molecular target: CXCR4 (Fusin), human (human) (UniProt P61073); test: cell-based or functional assay
[17] = molecular target: CXCR4 (Fusin), human (human) (UniProt P61073); test: flow cytometry, RD/CD4 cells
[18] = molecular target: HA-tagged CXCR4 (HA-tagged Fusin) on CHO-K1 cells (influenza; human) (UniProt P61073); test: Scatchard analysis of 125I-12G5 surface binding at 4 C; CHO cells expressing HA-tagged Fusin
[19] = molecular target: CXCR4 (Fusin), human (human) (UniProt P61073); test: FACS, 10 µg/ml 12G5, BC7 cells chronically infected by HIV-2/vcp; loss of surface Fusin or blocking of the epitope not told apart
[20] = molecular target: CXCR4 (Fusin), human (human) (UniProt P61073); test: flow cytometry, H9 cells

## MAb 12G5 (antibody)
[1]
  antibody molecules bound per cell (antibody molecules per cell): 400000
[2]
  Kd: 1 to 5 nM
[3]
  antibody molecules bound per cell (antibody molecules per cell): 1e+06
[4]
  percent reduction of 12G5 binding on HIV-2/vcp-infected against uninfected cells: 87%
[5]
  percentage of cells expressing CXCR4 by 12G5 staining: 89.5%
[6]
  percentage of cells expressing CXCR4 by 12G5 staining: 99%
[7]
  percentage of cells expressing CXCR4 by 12G5 staining: 81.5%
[8]
  percentage of cells expressing CXCR4 by 12G5 staining: 27.8%
[9]
  percent reduction of 12G5 binding on HIV-2/vcp-infected against uninfected cells: 75%
[10]
  percent reduction of 12G5 binding on HIV-2/vcp-infected against uninfected cells: 79%
[11]
  antibody molecules bound per cell (antibody molecules per cell): 50000
[12]
  percentage of cells expressing CXCR4 by 12G5 staining: 88.4%
[13]
  percentage of cells expressing CXCR4 by 12G5 staining: 5.2%
[14]
  percentage of cells expressing CXCR4 by 12G5 staining: 72%
[15]
  percentage of cells expressing CXCR4 by 12G5 staining: 35.5%
[16]
  antibody concentration required to inhibit HIV-2/vcp infection of CD4-negative BC7, Nalm6 and Daudi cells (RT activity): 5 to 20 µg/mL
  antibody concentration that inhibited CP-MAC infection of Sup-T1 cells (RT activity): 1 µg/mL
[17]
  percentage of cells expressing CXCR4 by 12G5 staining: 93.3%
[18]
  Kd: 1 to 5 nM
[19]
  percent reduction of 12G5 binding on HIV-2/vcp-infected against uninfected cells: 98%
[20]
  percentage of cells expressing CXCR4 by 12G5 staining: 51.4%
